Legend:
Conditions in all cases: both partners purified
[1] = target: T1, YFP-ANKS4B_(CEN-PBM) with harmonin NPDZ1.PDZ2 (human, UniProt Q8N8V4 259-417; Q9Y6N9-1 1-301); test: MST; YFP-fused partner held together with a third protein (saturating concentrations; competition experiments), non-fluorescent protein titrated
T1 construct: ANKS4B, human, residues 259-417 of UniProt Q8N8V4; as m42; Harmonin-a1 (USH1C), human, residues 1-301 of UniProt Q9Y6N9-1; as m30; also called ^YFPANKS4b+NPDZ1.PDZ2; source: purified E. coli proteins mixed; not shown: YFP, N-terminal, kept
T1 sequence (looked up) 1: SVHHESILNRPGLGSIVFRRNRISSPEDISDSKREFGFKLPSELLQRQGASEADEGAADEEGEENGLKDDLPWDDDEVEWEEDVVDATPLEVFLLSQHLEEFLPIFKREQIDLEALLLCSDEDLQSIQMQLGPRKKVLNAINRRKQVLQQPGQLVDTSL
T1 sequence (looked up) 2: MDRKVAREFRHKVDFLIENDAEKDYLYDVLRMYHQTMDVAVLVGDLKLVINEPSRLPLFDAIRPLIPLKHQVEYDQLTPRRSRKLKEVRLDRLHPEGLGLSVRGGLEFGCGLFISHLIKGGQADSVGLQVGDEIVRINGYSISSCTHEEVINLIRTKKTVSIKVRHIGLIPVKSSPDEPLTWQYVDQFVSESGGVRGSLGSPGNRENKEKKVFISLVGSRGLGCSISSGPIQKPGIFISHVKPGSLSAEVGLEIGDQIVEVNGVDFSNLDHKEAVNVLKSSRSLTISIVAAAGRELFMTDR

[2] = target: T2, ANKS4B_(CEN-PBM) with YFP-harmonin NPDZ1.PDZ2 (human, UniProt Q8N8V4 259-417; Q9Y6N9-1 1-301); test: as above
T2 construct: ANKS4B, human, residues 259-417 of UniProt Q8N8V4; as m43; Harmonin-a1 (USH1C), human, residues 1-301 of UniProt Q9Y6N9-1; as m31; also called ANKS4b+^YFPNPDZ1.PDZ2; ^YFPNPDZ1.PDZ2+ANKS4B_(CEN-PBM); source: purified E. coli proteins mixed
T2 sequence (looked up) 1: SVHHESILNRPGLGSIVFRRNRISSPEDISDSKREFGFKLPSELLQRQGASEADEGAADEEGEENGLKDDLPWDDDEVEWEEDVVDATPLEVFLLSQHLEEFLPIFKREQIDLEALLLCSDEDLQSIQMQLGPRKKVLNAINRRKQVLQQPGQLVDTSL
T2 sequence (looked up) 2: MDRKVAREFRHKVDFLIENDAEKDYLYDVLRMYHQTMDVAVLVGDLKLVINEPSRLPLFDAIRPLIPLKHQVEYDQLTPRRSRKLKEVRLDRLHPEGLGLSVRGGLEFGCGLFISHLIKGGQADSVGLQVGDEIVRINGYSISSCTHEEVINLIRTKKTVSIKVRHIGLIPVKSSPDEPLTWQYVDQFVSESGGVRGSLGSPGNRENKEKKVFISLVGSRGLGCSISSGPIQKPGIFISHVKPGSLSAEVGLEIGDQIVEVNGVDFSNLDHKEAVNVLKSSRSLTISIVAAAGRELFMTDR

[3] = target: T3, SANS_(CEN-PBM) with YFP-FL-harmonin-ΔCter ( | human, UniProt Q495M9 300-461; Q9Y6N9-1 1-542); test: as above
T3 construct: SANS (USH1G), residues 300-461 of UniProt Q495M9; as m41; Harmonin-a1 (USH1C), human, residues 1-542 of UniProt Q9Y6N9-1; as m28; also called SANS_(CEN-PBM)+^YFPFL ΔCter; source: purified E. coli proteins mixed
T3 sequence (looked up) 1: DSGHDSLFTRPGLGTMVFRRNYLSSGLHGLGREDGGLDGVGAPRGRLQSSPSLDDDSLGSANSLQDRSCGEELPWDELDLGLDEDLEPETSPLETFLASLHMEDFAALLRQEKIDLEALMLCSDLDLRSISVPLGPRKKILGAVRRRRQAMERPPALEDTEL
T3 sequence (looked up) 2: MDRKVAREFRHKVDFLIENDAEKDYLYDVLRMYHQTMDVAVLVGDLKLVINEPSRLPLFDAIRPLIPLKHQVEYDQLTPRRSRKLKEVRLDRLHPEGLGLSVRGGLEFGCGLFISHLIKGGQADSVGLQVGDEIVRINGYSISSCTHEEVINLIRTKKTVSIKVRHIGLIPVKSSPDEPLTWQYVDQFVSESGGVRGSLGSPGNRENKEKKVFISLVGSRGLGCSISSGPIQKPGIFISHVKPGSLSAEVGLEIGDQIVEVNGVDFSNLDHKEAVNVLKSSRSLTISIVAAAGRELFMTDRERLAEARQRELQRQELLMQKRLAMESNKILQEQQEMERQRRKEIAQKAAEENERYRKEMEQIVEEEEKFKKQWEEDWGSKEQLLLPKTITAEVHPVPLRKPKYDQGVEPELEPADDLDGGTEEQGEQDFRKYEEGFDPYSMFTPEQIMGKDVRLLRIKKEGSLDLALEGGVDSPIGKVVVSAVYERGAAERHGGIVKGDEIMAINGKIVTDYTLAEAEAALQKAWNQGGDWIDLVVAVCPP

YFP-Harmonin NPDZ1.PDZ2 = target: T4, YFP-Harmonin NPDZ1.PDZ2 (human, UniProt Q9Y6N9-1 1-301); test: MST; YFP-fused partner constant at 100 nM, non-fluorescent protein titrated (16 two-fold dilutions); 20 mM Hepes pH 7.0, 100 mM NaCl, 1 mM EGTA, 0.5 mM TCEP, 0.05% Tween 20; Monolith NT.115
T4 construct: Harmonin-a1 (USH1C), human, residues 1-301 of UniProt Q9Y6N9-1; also called ^YFPNPDZ1.PDZ2; source: E. coli BL21 (DE3) Rosetta, purified (Glutathione Sepharose 4B, size-exclusion chromatography)
T4 sequence (looked up): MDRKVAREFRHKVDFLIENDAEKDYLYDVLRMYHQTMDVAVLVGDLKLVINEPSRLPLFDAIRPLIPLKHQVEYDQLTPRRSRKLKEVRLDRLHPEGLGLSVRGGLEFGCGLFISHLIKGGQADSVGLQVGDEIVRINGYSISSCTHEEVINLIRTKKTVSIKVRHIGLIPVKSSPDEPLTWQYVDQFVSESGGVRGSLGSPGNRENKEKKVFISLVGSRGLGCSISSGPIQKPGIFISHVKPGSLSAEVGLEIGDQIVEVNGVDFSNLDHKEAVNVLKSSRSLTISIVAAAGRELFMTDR

Harmonin NPDZ1.PDZ2 = target: T5, Harmonin NPDZ1.PDZ2 (human, UniProt Q9Y6N9-1 1-301); test: as above
T5 construct: Harmonin-a1 (USH1C), human, N-terminal domain, PDZ1 and PDZ2, residues 1-301 of UniProt Q9Y6N9-1; source: E. coli BL21 (DE3) Rosetta, purified (Glutathione Sepharose 4B, size-exclusion chromatography)
T5 sequence (looked up): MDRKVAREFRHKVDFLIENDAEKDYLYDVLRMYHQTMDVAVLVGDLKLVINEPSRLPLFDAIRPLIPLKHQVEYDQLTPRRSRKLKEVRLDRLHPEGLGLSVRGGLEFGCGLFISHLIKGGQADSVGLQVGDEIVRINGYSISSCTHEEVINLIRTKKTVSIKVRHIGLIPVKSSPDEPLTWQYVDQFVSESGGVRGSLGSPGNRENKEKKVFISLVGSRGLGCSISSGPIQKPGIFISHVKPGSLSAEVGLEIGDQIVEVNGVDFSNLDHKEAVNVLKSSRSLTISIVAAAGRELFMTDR

[4] = target: T6, Harmonin NPDZ1 (non-fluorescent, as used in MST and SEC-MALS) (human, UniProt Q9Y6N9-1 1-197); test: as above
T6 construct: Harmonin-a1 (USH1C), human, N-terminal domain and PDZ1, residues 1-197 of UniProt Q9Y6N9-1; source: E. coli BL21 (DE3) Rosetta, purified (Glutathione Sepharose 4B, size-exclusion chromatography)
T6 sequence (looked up): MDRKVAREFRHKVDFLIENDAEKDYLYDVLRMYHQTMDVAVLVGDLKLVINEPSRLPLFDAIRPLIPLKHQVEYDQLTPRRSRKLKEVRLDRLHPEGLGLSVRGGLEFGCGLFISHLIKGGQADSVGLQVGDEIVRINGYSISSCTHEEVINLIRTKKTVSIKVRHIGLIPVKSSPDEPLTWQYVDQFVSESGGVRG

| Binder | Kd [1] [µM] | Kd [2] [µM] | Kd [3] [µM] | Kd (YFP-Harmonin NPDZ1.PDZ2) [µM] | Kd (Harmonin NPDZ1.PDZ2) [µM] | Kd [4] [µM] |
| --- | --- | --- | --- | --- | --- | --- |
| Harmonin-a PDZ3c (non-fluorescent, as used in MST) (domain or fragment, human, UniProt Q9Y6N9-1 428-552, looked up, Harmonin-a1 (USH1C), human, PDZ3 plus C-terminal peptide, residues 428-552 of UniProt Q9Y6N9-1; The methods say only that samples for ITC or crystallisation were digested with TEV protease; also called PDZ3c (isoA); source: E. coli BL21 (DE3) Rosetta, purified (Glutathione Sepharose 4B, size-exclusion chromatography)) QDFRKYEEGFDPYSMFTPEQIMGKDVRLLRIKKEGSLDLALEGGVDSPIGKVVVSAVYERGAAERHGGIVKGDEIMAINGKIVTDYTLAEAEAALQKAWNQGGDWIDLVVAVCPPKEYDDELTFF | > 100 | > 100 | > 100 | 5.2 |  |  |
| YFP-Harmonin-a PDZ3c (domain or fragment, human, UniProt Q9Y6N9-1 428-552, looked up, Harmonin-a1 (USH1C), human, residues 428-552 of UniProt Q9Y6N9-1; also called ^YFPPDZ3c (isoA); source: E. coli BL21 (DE3) Rosetta, purified (Glutathione Sepharose 4B, size-exclusion chromatography)) QDFRKYEEGFDPYSMFTPEQIMGKDVRLLRIKKEGSLDLALEGGVDSPIGKVVVSAVYERGAAERHGGIVKGDEIMAINGKIVTDYTLAEAEAALQKAWNQGGDWIDLVVAVCPPKEYDDELTFF |  |  |  |  | 3.2 | 14.2 |
